Assay results as given in US12037419B2 (The Feinstein Institutes for Medical Research, priority 2016, dated 2024).
Blank lines part the entries; values can stand above or below the molecule they belong to.

Experiments:
human monocytes [1] = assay: Induction of anti-inflammatory molecules / M2-like phenotype (Mer, PDL-1, IL-10, CD163) in monocytes; assay type: cell-based; details: together with HMGB1 3 μg/ml, C1q 25 μg/ml or C1q tail 53 μg/ml, 24 h
Description: (§1) Monocyte isolation and stimulation: Human PBMCs were obtained following institutional guidelines of the Feinstein Institute for Medical Research (Feinstein) and isolated from blood of healthy donors by density centrifugation (New York Blood Bank). Monocytes were negatively enriched using a human monocyte enrichment kit (Stem Cell Technology). Purity of monocytes (≥90% CD11b+CD14+LAIR-1+) was determined by flow cytometry. […] Splenic murine monocytes from wild type mice, RAGE deficient or LAIR-1 conditional knockout mice were isolated using EasySep mouse monocyte enrichment kit (Stem Cell Technology). C57BL/6 mice, Lysozyme2-Cre transgenic mice were purchased from Jackson Laboratory. Myeloid specific LAIR-1 conditional knockout mice (Lysozyme2-Cre×LAIR fl/fl) were bred and maintained in our facility (Feinstein) under specific pathogen-free conditions. RAGE deficient mice (Department of Medicine, Karolinska Institute Stockholm, Sweden) were maintained at Feinstein. Eight-to ten weeks old male mice were used for experiments. All animal procedures were approved by the Feinstein Institutional Animal Care and Use Committee.
RT-PCR analysis and primers: Total RNA was extracted from cells (1-2×10^6 cells per sample) with an RNeasy kit (Qiagen, Venlo, Limburg, Netherlands) and cDNA was generated using an iScript cDNA synthesis kit (Bio-Rad laboratories). […] The relative induction was calculated by 2-ΔΔCt.
(§2) Cytokine analysis: Cytokine levels were measured using a Human Proinflammatory 7-plex assay following the manufacturer's protocols (Meso Scale Discovery (MSD). MSD plates were analyzed on the MS2400 imager (MSD). All standards and samples were run in duplicates.
Flow cytometry: Cells were suspended in staining buffer containing 2% BSA and incubated with Fc block (Miltenyi Biotec) for 15 min on ice. […] Events were acquired using either an LSRII or Fortessa cell analyzer (BD Biosciences), and data were analyzed using FlowJo (Tree star).

RAGE = biological target: T1, RAGE (Homo sapiens, UniProt Q15109); assay: SPR assay of C1q and RAGE binding; details: data not shown
T1 construct: purchased R&D Systems
T1 sequence (Q15109 23-342 limits assumed): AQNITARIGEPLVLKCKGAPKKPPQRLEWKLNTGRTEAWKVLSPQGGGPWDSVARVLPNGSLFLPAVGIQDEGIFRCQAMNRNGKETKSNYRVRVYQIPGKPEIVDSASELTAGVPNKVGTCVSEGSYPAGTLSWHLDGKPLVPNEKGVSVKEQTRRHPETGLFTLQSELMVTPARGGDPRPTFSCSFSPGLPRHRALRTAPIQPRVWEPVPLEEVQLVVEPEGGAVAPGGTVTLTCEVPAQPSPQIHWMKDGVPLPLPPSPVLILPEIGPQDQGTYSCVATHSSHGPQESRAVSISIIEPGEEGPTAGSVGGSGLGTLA
Description: Surface Plasmon Resonance analysis (SPR): For real-time binding interaction studies, a BIAcore T200 instrument (GE Healthcare) was used. […] A 1:1 mixture of N-hydroxysuccinimide and N-ethyl-N-(dimethyaminopropyl) carbodiimide was used to activate 2 flow-cells of the CMS chip. […] The analytes were diluted in 1×PBS+0.01% (vol/vol) tween-20 buffer. The analytes were sequentially injected at a flow rate of 30 μl/min for 60 s at 25° C. The KD was dertermined using the BIAcore evaluation software 2.0 (GE Healthcare) supposing a 1:1 binding ratio.

[2] = tested on: allogeneic primary human CD4 T cells; assay: Allogeneic mixed lymphocyte reaction; assay type: cell-based; details: HMGB1 3 μg/ml alone
Description: Allogeneic CD4 T lymphocytes were isolated from blood using the Naïve CD4+ T cell isolation kit II (Miltenyi Biotec.) following the manufacturer's protocol. Cells were analyzed by flow cytometry (>90%). T cells were labeled with 5 μM Cell Trace Violet cell proliferation kit (Thermo Fisher Scientific), added to mono/macrophages at a density of 2×10^5 cells/well (a 1:2 ratio) in the presence of 1 μg/ml anti-CD3 (OKT3, eBioscience). Control cultures contained medium only or T cells or mono/macrophages alone. After 4 days, cells were stained with FITC-anti-CD4, PerCPCy 5.5-CD14, PE-LAIR-1 and fixable viability dyes (FVD, eBioscience) for 20 min at room temperature and subsequently washed and fixed. Live cells (FVD-negative cells) were then gated on CD4-positive, and cell trace violet was assessed by flow cytometry on a BD LSR II (BD Biosciences). Cell proliferation was analyzed as described (51). The % divided cells was defined as the probability that a cell has divided at least once from the original population. The division index was defined as the average number of cell divisions that a cell in the original population has undergone.

human monocytes [3] = assay: Monocyte to DC differentiation with GM-CSF and IL-4 (flow cytometry); assay type: cell-based; details: HMGB1 alone 24 h, then GM-CSF and IL-4
human monocytes [4] = assay: SeaHorse cellular flux assay (OCR, ECAR); assay type: cell-based; details: HMGB1 3 μg/ml alone, 24 h
Description: Cell metabolism analysis using SeaHorse Cellular Flux assay. […] One hour prior to measurement, culture medium was exchanged for assay medium (unbuffered DMEM (Sigma), supplemented with 10 mM Glucose, 1 mM Pyruvate and 2 mM Glutamine for mitochondrial assays, or with 2 mM Glutamine alone for glycolytic assays. Reagents were injected during the measurement to achieve final concentrations of oligomycin (1 μM), carbonyl cyanide p-(trifluoromethoxy) phenylhydrazone (FCCP) ([…]), Rotenone/antimycin A (0.5 μM). Glucose (10 mM), and 2-Deoxy-D glucose (50 mM). Oxygen consumption rate (OCR) and Extracellular acidification rate (ECAR) values were measured using a SeaHorse XfP instrument (SeaHorse bioscience). Measured values were normalized to the number of live cells present in each well as determined by a trypan blue staining by the end of each run. For OCR/ECAR ratio calculations, an average of the last two basal readings was used for both OCR and ECAR.

human monocytes [5] = assay: HMGB1-induced monocyte activation (cytokine mRNA by q-PCR, protein by ELISA/MSD); assay type: cell-based; details: HMGB1 alone
Description: as §1
RT-PCR analysis and primers: Total RNA was extracted from cells (1-2×10^6 cells per sample) with an RNeasy kit (Qiagen, Venlo, Limburg, Netherlands) and cDNA was generated using an iScript cDNA synthesis kit (Bio-Rad laboratories). Real Time-PCR was performed on a Light Cycler 480 II (Roche) using Light Cycler 480 master mix with primers (Applied Biosystems) for IFNα1 (Hs00256882), IFNα7 (mm02525960), MX1 (Hs00182073, mm01217998), IL-6 (Hs00985639, mm99999064), TNFα (Hs00174128, mm00443258), IL-12a (Hs00168405), Mer (Hs01031973), PDL-1 (Hs01125301), IL-10 (Hs00961622), CD163 (Hs00174705), HPRT1 (Hs99999909, mm01545399) and Polr2a (Hs00172187). The genes of interest were normalized to the expression of house keeping genes and were compared to a control condition with no treatment. The relative induction was calculated by 2-ΔΔCt.
Transfection: For RNA interference assays, human monocytes were transfected using an Amaxa Nucleofector kit (Lonza) with a greater than 40% transfection efficiency. siRNAs were obtained from Qiagen. The target sequence of human LAIR1-11 is […] (SEQ ID NO:9). The efficiency of knockdown was determined by flow cytometry and q-PCR.
as §2

NZB/W mice = assay: NZB/W lupus mice in vivo (FIG. 23-25); set-up: species or system mouse
murine macrophages = assay: RvD2 and LTB4 in murine macrophages after HMGB1 in vivo (FIG. 22); set-up: species or system mouse

binding to RAGE (RAGE): No binding
Molecule: C1q tail: C1q tail purified from whole C1q; collagen-like tail
transcription and protein expression of anti-inflammatory factors (Mer, PDL-1, IL-10, CD163) (human monocytes [1]): did not mediate similar effects

B1: HMGB1: Recombinant HMGB1 (Calmodulin Binding Protein Epitope, Cbp tagged) (protein)
chain: MGKGDPKKPRGKMSSYAFFVQTCREEHKKKHPDASVNFSEFSKKCSERWKTMSAKEKGKFEDMAKADKARYEREMKTYIPPKGETKKKFKDPNAPKRPPSAFFLFCSEYRPKIKGEHPGLSIGDVAKKLGEMWNNTAADDKQPYEKKAAKLKEKYEKDIAAYRAKGKPDAAKKGVVKAEKSKKKKEEEEDEEDEEDEEEEEDEEDEDEEEDDDDE
modifications: left off: small tags and cut ends
stimulation of T cells by monocytes exposed to HMGB1 [2]: induced the strongest mixed lymphocyte reaction | monocyte to DC differentiation after pre-treatment with HMGB1 (human monocytes [3]): monocyte to DC differentiation occurred | OCR/ECAR ratio (human monocytes [4]): significantly decreased | baseline oxidative phosphorylation (OCR) and glycolytic metabolism (ECAR) (human monocytes [4]): enhanced | transcription and secretion of type 1 IFN, IFN-inducible genes and proinflammatory cytokines (human monocytes [5]): dramatically increased

B2: KLKEKYEKDIAAYRAKGKPDAAKKGVVKAEKSKKGGGGSGGGGSGGGGSKGEQ GEPGAPGI (peptide)
chain: KLKEKYEKDIAAYRAKGKPDAAKKGVVKAEKSKKGGGGSGGGGSGGGGSKGEQGEPGAPGI
modifications: Artificial based on human
notes: HMGB1 B box-linker-C1q peptide
anti-DNA IgM/IgG-producing splenocytes (NZB/W mice; NZB/W mice in vivo): decreases anti-DNA IgM/IgG-producing splenocytes | inflammatory and anti-inflammatory markers in splenocytes (NZB/W mice; NZB/W mice in vivo): decreases inflammatory and increases anti-inflammatory markers | progression of serum anti-dsDNA antibodies (NZB/W mice; NZB/W mice in vivo): slows the progression | kidney IgG deposition (NZB/W mice; NZB/W mice, staining data not shown): decreases kidney IgG deposition | LTB4 induction by HMGB1 in murine macrophages (murine macrophages): abolishes LTB4 induction | RvD2 in murine macrophages (murine macrophages; HMGB1 challenge): induces RvD2
